Earlier results as cited in paper PMC3432731.

Molecular target: Cyclin A (Homo sapiens) (UniProt P20248)
Chain of UniProt P20248 (P20248 whole entry): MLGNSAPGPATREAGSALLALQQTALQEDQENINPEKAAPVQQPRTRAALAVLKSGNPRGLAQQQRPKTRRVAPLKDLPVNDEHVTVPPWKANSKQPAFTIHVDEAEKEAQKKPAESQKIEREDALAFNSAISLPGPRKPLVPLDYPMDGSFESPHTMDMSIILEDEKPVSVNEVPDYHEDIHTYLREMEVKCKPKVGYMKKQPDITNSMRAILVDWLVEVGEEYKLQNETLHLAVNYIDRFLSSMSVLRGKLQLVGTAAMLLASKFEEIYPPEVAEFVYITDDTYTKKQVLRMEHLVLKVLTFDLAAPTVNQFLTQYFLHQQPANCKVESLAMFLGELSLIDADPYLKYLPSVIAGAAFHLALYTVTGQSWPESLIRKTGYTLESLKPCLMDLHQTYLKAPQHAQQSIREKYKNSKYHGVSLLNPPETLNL

Substance: p27 (from UniProt P46527)
- Kd: 25 nM
